Where two headings read alike, the source gives them in different places.
Assays:
[1] = molecular target: PfTGS1-NLS-GFP (bi-partite NLS of P. falciparum trimethyl guanosine synthase 1 fused to GFP) (Plasmodium falciparum); assay: SPR
[2] = molecular target: ΔIBB-TgImpα (T. gondii importin α lacking the IBB domain, amino acids 92-545, C-terminal His-tag) (Toxoplasma gondii); assay: pull-down
[3] = molecular target: PfTGS1-NLS-GFP (bi-partite NLS of P. falciparum trimethyl guanosine synthase 1 fused to GFP) (Plasmodium falciparum); assay: SPR; remark: listed apart in the source
[4] = molecular target: SV40 T-ag-NLS-GFP (SV40); assay: AlphaScreen or HTRF

Substance	Kd [1] [µM]	other results
AAA-TgImpα (KKR/AAA mutant of the third basic cluster) (natural protein)	0.28	–
KRR-TgImpα (KKR/KRR mutant of the third basic cluster) (natural protein)	1.45	–
MmHinge-TgImpα (TgImpα chimera containing the hinge motif from MmImpα2) (from UniProt P52293 57-70)	0.0051	–
PfTGS1-NLS-GFP (bi-partite NLS of P. falciparum trimethyl guanosine synthase 1 fused to GFP) (domain or fragment)	–	relative band intensity (pulled down by ΔIBB-TgImpα over WT-TgImpα) [2]: 4.6
SKR-TgImpα (KKR/SKR mutant of the third basic cluster) (natural protein)	0.41	–
WT-TgImpα (full-length Toxoplasma gondii importin α with C-terminal His-tag) (natural protein)	0.00326	Kd [3]: 0.83 µM
WT-TgImpα with a C-terminal GST tag (from UniProt A0A125YID0 1-545) (natural protein)	–	Kd [4]: 0.0035 µM
pre-dimerized TgImpα/MmImpβ1 (from UniProt P70168 1-876) (complex)	–	Kd [4]: 0.0015 µM
ΔIBB-TgImpα (T. gondii importin α lacking the IBB domain, amino acids 92-545, C-terminal His-tag) (domain or fragment)	–	Kd [3]: 0.24 µM

From publication doi:10.1101/2022.10.06.510747
